Results as given in patent publication US9505823.

Molecular target: IGF-I receptor (on L6 cells) (UniProt P24062)
Assay: cell-based or functional assay

Chain of UniProt P24062 (P24062 31-1370 limits assumed): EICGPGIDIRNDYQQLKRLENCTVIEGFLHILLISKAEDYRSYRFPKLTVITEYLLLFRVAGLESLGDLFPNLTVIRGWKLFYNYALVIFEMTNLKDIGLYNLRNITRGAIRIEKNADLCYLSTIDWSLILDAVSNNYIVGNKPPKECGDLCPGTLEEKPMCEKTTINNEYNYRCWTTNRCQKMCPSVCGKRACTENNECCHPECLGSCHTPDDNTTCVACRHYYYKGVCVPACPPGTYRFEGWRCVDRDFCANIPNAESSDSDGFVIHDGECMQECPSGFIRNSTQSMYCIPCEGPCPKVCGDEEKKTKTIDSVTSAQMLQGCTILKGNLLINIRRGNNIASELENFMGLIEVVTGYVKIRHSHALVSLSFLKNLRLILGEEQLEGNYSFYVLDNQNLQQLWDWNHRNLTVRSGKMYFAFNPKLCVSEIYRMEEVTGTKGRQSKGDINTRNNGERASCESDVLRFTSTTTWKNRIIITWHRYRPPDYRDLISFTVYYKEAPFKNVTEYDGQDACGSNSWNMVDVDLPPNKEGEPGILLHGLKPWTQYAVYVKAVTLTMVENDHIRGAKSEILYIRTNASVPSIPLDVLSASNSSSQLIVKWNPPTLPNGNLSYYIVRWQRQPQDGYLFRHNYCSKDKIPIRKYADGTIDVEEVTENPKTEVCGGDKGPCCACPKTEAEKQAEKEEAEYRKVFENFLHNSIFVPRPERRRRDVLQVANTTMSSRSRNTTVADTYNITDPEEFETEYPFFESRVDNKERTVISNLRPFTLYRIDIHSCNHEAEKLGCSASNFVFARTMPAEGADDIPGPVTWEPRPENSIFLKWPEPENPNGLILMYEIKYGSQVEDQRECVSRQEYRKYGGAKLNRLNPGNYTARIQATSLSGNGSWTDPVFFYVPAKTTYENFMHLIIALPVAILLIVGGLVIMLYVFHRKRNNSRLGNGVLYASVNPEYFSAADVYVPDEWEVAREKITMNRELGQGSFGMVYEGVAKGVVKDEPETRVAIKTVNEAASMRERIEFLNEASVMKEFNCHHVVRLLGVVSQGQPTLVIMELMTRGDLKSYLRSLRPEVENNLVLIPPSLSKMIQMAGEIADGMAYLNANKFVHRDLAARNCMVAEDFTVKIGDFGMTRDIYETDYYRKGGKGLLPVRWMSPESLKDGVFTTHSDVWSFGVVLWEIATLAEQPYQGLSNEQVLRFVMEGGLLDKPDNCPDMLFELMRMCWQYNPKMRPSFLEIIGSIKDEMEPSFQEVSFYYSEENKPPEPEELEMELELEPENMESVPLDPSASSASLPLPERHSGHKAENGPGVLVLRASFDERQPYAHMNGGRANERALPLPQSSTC

| EC50 of L6 cell proliferation (CellTiter-Glo, 2 days) [nM] | EC50 of mitogenic activity, L6 cells [nM] | Percent mitogenic activity, L6 cells (insulin = 100) [percent] | Substance |
| --- | --- | --- | --- |
| 0.9 | 4.73 | 77 | Glargine (Lantus, Aventis) (ligand) |
| 0.04 | 0.07 | 5230 | IGF-I (from UniProt P05019 49-118) (ligand) |
| – | 14.8 | 24.7 | Levemir (ligand) |
